According to patent US20240376224A1 (University of California, published 2024):

Columns and labels:
[1] = target: T1, mouse c-CDCP1 (recombinant cleaved mouse CDCP1) (mouse, UniProt Q5U462 30-368; Q5U462 369-666, limits assumed); test: BLI (Octet), mouse c-CDCP1-Fc on the sensor, IgG CL03 as analyte
T1 construct: Mouse antigens made were c-CDCP1-Fc (Cut 1) and (Cut 2); also called mouse cleaved CDCP1; cleaved mCDCP1
T1 sequence 1: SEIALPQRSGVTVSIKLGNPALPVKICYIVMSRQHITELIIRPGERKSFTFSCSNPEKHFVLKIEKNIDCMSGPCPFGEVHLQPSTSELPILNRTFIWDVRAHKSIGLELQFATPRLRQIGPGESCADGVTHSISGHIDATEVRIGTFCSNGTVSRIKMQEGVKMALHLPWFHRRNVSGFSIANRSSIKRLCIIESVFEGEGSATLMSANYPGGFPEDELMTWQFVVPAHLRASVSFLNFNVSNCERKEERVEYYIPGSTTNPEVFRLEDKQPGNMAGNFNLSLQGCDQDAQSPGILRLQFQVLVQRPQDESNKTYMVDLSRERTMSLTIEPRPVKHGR
T1 sequence 2: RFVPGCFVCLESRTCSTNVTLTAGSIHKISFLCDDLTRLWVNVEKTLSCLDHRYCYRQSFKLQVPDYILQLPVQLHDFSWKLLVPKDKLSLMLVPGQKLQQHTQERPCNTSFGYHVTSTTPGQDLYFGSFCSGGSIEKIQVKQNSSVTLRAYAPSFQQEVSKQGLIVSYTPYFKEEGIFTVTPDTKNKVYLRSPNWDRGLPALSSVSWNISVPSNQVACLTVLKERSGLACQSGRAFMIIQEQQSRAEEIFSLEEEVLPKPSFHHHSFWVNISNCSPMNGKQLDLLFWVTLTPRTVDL

[2] = target: T2, cleaved human CDCP1 on the cell surface (endogenous, PDAC cells) (human) (UniProt Q9H5V8); test: dose-response flow cytometry on PL5 cells; PL5 cells
T2 sequence 1: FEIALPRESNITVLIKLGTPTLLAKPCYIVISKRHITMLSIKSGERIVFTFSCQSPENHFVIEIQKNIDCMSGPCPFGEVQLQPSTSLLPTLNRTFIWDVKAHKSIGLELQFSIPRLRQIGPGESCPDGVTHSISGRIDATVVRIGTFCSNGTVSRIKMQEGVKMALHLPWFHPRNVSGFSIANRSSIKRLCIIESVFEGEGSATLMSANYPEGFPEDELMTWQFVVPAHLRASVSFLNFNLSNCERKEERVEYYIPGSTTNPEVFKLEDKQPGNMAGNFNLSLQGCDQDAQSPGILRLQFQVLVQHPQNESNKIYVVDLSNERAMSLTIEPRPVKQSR
T2 sequence 2: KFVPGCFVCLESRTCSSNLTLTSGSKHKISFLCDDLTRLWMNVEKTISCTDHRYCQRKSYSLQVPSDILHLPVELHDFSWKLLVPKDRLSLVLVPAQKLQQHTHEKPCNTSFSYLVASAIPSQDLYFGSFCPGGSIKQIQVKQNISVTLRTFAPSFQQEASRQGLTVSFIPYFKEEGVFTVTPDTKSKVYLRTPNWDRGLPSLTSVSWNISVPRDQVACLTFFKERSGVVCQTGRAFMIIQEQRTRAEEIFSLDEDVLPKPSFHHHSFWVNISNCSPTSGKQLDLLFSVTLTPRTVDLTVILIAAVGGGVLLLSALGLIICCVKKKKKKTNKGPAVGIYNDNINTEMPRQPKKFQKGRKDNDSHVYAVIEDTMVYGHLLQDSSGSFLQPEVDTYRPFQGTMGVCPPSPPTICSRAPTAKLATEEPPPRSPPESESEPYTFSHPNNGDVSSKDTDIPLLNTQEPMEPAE

c-CDCP1 = test: BLI (Octet RED384)
[3] = target: T2, cleaved human CDCP1 on the cell surface (endogenous, PDAC cells) (human); test: dose-response flow cytometry on PL45 cells; PL45 cells
[4] = target: T3, mouse fl-CDCP1 (recombinant uncleaved mouse CDCP1) (mouse, UniProt Q5U462 30-666); test: BLI (Octet), mouse fl-CDCP1-Fc on the sensor, IgG CL03 as analyte
T3 construct: The mouse antigen made was fl-CDCP1-Fc; also called mouse fl-CDCP1-Fc
T3 sequence: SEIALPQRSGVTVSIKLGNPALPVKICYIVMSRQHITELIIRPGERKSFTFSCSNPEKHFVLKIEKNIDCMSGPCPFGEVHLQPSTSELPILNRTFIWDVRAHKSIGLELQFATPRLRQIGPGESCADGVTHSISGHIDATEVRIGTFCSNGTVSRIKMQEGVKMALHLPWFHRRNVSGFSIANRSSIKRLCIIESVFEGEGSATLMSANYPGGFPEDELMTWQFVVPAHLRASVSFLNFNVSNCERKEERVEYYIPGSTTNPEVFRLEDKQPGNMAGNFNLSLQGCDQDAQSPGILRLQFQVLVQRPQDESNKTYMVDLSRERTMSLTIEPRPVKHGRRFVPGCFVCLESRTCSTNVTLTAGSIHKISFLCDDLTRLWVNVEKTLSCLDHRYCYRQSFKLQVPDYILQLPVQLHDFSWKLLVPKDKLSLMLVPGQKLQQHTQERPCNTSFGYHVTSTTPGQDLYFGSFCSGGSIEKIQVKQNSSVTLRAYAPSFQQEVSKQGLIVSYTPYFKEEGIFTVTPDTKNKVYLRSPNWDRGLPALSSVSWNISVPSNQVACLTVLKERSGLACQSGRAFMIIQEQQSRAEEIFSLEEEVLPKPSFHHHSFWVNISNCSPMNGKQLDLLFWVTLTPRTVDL

binding result [1]: no binding (tested: not printed)
EC50 [2]: 14.1 nM
Kd (c-CDCP1): 0.15 to 0.84 nM
EC50 [3]: 20.7 nM
binding result [4]: no binding (tested: not printed)
B1: CL03 IgG (antibody, V domains shown)
VH: EVQLVESGGGLVQPGGSLRLSCAASGFNFSSYSIHWVRQAPGKGLEWVASIYPYSGSTYYADSVKGRFTISADTSKNTAYLQMNSLRAEDTAVYYCARQSHSYYSHTWWVSYGMDYWGQGTLVTVSS
VL: DIQMTQSPSSLSASVGDRVTITCRASQSVSSAVAWYQQKPGKAPKLLIYSASSLYSGVPSRFSGSRSGTDFTLTISSLQPEDFATYYCQQSGQRPITFGQGTKVEIKR
notes: also called IgG CL03
